From publication PMC9160799, “PET Imaging of Acidic Tumor Environment With ^89Zr-labeled pHLIP Probes” (Frontiers in Oncology, 2022)
Entries after “also recorded” stand apart in the source; their conditions may differ. Read-outs that look alike come from different tables or passages of the source. Square brackets hold non-standard residues; d marks the D form. Peptide text beside a SMILES is read from it. * marks the point of attachment. X1 = CC(=O)N(O)CCCCCNC(=O)CCC(=O)N(O)CCCCCNC(=O)CCC(=O)N(O)CCCCCNC(=O)CCC(=O)N(O)CCCCCNC(=S)Nc1ccc(NC(=S)*)cc1

Columns and labels:
[1] = Post-mortem biodistribution, RM-1 tumor model; assay type: in vivo, male athymic nude mice; conditions: male, athymic nude, mouse, iv, 1.2 nmol, total radioactivity; for tissue uptake at 48 h: RM-1, male athymic nude mice, 48 h p.i., i.v. 1.2 nmol, 7.4 MBq, gamma counting, mean ± S.D., n=4
Description: The media were provided by the MSK Media Preparation Core. […] Another aliquot was diluted with the medium so that 50 µL contained 1×10^6 cells.
(§1) The imaging and biodistribution studies were performed with male (RM-1 model) and female (4T1 model) athymic nude mice and the kidney-blocking experiments were performed with female SCID mice received from Charles River Laboratories (Stone Ridge, NY). After arrival, the mice were kept in the MSK vivarium for one week before any experimental handling was performed. The animals were allowed free access to water and food, and all animal care and experimental procedures were approved by the Institutional Animal Care and Use Committee (IACUC). For the subcutaneous allografts, a 1-to-1 ratio of Corning Matrigel Matrix and the cell solution was prepared and stored on ice for the injections. Each mouse received a subcutaneous injection of 100 µL (50 µL cell solution, viability > 90%, + 50 µL Matrigel) into the flank on the level of the right shoulder. The injections were performed under anesthesia (2% isoflurane, Baxter Healthcare, Deerfield, IL, USA).
The mice were intravenously injected (tail vein) with the radiolabeled pHLIP conjugates (1.2 nmol, 7.4 MBq/200 µCi, 100 µL, in sterile filtered PBS). The activity of the syringe prior to injection and after injection was used to determine the percent of injectate administered.
For the biodistribution studies the tumor-bearing mice were randomized before the injections. Only mice with suitable tumors (150–300 mm^3) were utilized. An exception was made for the 120-hour timepoint, for which only mice with smaller tumors (150 mm^3) were selected. The mice were grouped in cohorts of four. At the respective timepoint, the mice were euthanized (by CO2 asphyxiation, followed by cervical dislocation) and their blood was collected by cardiac puncture as a terminal procedure, followed by quick removal of the tumors. After this, the other organs/samples were collected. […] The exact activities of all samples of one mouse were determined by an Capintec® CRC-55tR dose calibrator. These decay-corrected measurements were used to determine a calibration factor and calibrate all counts to the corresponding activities. Activity concentrations were calculated as percentage injected dose per tissue weight (%ID/g wet tissue). All data was processed and visualized using Origin 8.5.

[2] = test system: kidney uptake of [89Zr]Zr-DFOsqa-Lys-Var3; experiment: Kidney-blocking study (PET imaging); assay type: in vivo, healthy female SCID mice; conditions: drug IV 30 min before 7.4 MBq [89Zr]Zr-DFOsqa-Lys-Var3 (1.2 nmol); two doses per drug, n=2 each; PET 24 h p.i. vs control mice
Description: as §1, with “USA). Palpable tumors of similar size (100–300 mm^3) developed 5–8 days after grafting.” for “USA).”
PET images were obtained at the respective timepoints with the mice under anesthesia (2% isoflurane) on a microPET Focus 120 (Concorde Microsystems) or an Inveon PET-CT (Siemens) rodent scanner. All images were analyzed using the Medical Imaging Data Examiner Amide (version 0.9.0) or the Inveon reconstruction software suite. The counting rates in the reconstructed images were converted to percent of injected dose per weight (%ID/g) by applying a system-specific calibration factor. At the final timepoint, the remaining mice were euthanized (by CO2 asphyxiation, followed by cervical dislocation) and their tumors were resected for histological analysis.
Additional experiments were performed to investigate the influence of various kidney-uptake blockers and diuretics. Healthy female SCID mice received a “blocking agent” 30 minutes prior to the injection of [^89Zr]Zr-DFOsqa-Lys-Var3 (7.4 MBq/200 µCi, 1.2 nmol). […] The experimental set-up can be found in Table S6 .
Table S6. Summary of the kidney-blocking study. Healthy female SCID mice (2 mice per experiment/ dosage + 2 control mice without treatment, total of 22 mice) received a blocking agent intravenously 30 minutes prior to the injection of 7.4 MBq/200 µCi [89Zr]Zr-DFOsqa-Lys-Var3 (1.2 nmol pHLIP).
The drug dose was calculated as weight of drug (mg) per weight of mouse (kg). A potential kidney […]
calibrated images to the control mice (24 hours post injection). No drug led to a significant reduction […]
drug (IV 30 min before dose [mg/kg] effect on kidney mechanism of action [89Zr]Zr-pHLIP) (n=2) uptake […]
and water from the body; acts as a diuretic […]
organic anion transporter; blocks the uptake of organic anions […]
tubule via inhibition of the Na/Cl symporter; acts as a diuretic […]
increased – serum levels decreased

Question: Which tissue uptake at 48 h ([1]; blood, read-out: Blood uptake) does the source give for `CC[C@@H](C)[C@@H](NC(=O)[C@H]1CCCN1C(=O)[C@@H](CC(N)=O)NC(=O)[C@@H](CCC(N)=O)NC(=O)[C@@H](CCC(=O)O)NC(=O)[C@@H](CCCCNC(=S)Nc1ccc(NC(=S)NCCCCCN(O)C(=O)CCC(=O)NCCCCCN(O)C(=O)CCC(=O)NCCCCCN(O)C(C)=O)cc1)NC(=O)[C@@H](C)NC(C)=O)C(=O)N[C@H](Cc1ccc(O)cc1)C(=O)N[C@H](Cc1c[nH]c2ccccc12)C(=O)N[C@H](C)C(=O)N[C@H](CCCNC(=N)N)C(=O)N[C@H](Cc1ccc(O)cc1)C(=O)N[C@H](C)C(=O)N[C@H](CC(=O)O)C(=O)N[C@H](Cc1c[nH]c2ccccc12)C(=O)N[C@H](CC(C)C)C(=O)N[C@H](Cc1ccccc1)C(=O)N[C@@H](C(=O)N[C@@H](C(=O)N1CCC[C@@H]1C(=O)N[C@H](CC(C)C)C(=O)N[C@H](CC(C)C)C(=O)N[C@H](CC(C)C)C(=O)N[C@H](CC(C)C)C(=O)N[C@H](CC(=O)O)C(=O)N[C@H](CC(C)C)C(=O)N[C@H](C)C(=O)N[C@H](CC(C)C)C(=O)N[C@H](CC(C)C)C(=O)N[C@@H](C(=O)N[C@H](CC(=O)O)C(=O)N[C@H](C)C(=O)N[C@H](CC(=O)O)C(=O)N[C@H](CCC(=O)O)C(=O)NCC(=O)N[C@@H](C(=O)NCC(=O)O)[C@H](C)O)C(C)C)[C@H](C)O)[C@H](C)O` (89Zr complex, metal not drawn) [DFO-Lys-WT] here?
Answer: 0.1 ± 0.03 %ID/g

Question: What about the tissue uptake at 48 h ([1]; tibia, read-out: Tibia uptake) of the same compound?
Answer: 2.3 ± 0.5 %ID/g

Question: Which “effect on kidney uptake” value [2] does the source give for `CN(C)c1nc(N)c(C(=O)NC(=N)N)nc1Cl` [5-(N,N-dimethyl)amiloride] here?
Answer: not significant; also recorded: none of these drugs led to a significant reduction of kidney uptake

Question: For `CC(=O)N[C@H](C)C(=O)N[C@H](CCCCNC(=S)Nc1ccc(NC(=S)NCCCCCN(O)C(=O)CCC(=O)NCCCCCN(O)C(=O)CCC(=O)NCCCCCN(O)C(=O)CCC(=O)NCCCCCN(O)C(C)=O)cc1)C(=O)N[C@H](CC(=O)O)C(=O)N[C@H](CC(=O)O)C(=O)N[C@H](CCC(N)=O)C(=O)N[C@H](CC(N)=O)C(=O)N1CCC[C@@H]1C(=O)N[C@H](Cc1c[nH]c2ccccc12)C(=O)N[C@H](CCCNC(=N)N)C(=O)N[C@H](C)C(=O)N[C@H](Cc1ccc(O)cc1)C(=O)N[C@H](CC(C)C)C(=O)N[C@H](CC(=O)O)C(=O)N[C@H](CC(C)C)C(=O)N[C@H](CC(C)C)C(=O)N[C@H](Cc1ccccc1)C(=O)N1CCC[C@@H]1C(=O)N[C@@H](C(=O)N[C@H](CC(=O)O)C(=O)N[C@@H](C(=O)N[C@H](CC(C)C)C(=O)N[C@H](CC(C)C)C(=O)N[C@H](CC(C)C)C(=O)N[C@H](CC(=O)O)C(=O)N[C@H](CC(C)C)C(=O)N[C@H](CC(C)C)C(=O)N[C@H](Cc1c[nH]c2ccccc12)C(=O)N[C@H](C)C(=O)O)[C@H](C)O)[C@H](C)O` [DFO*-Lys-Var3] (Ac-[dA][dK](X1)[dD][dD][dQ][dN][dP][dW][dR][dA][dY][dL][dD][dL][dL][dF][dP][dT][dD][dT][dL][dL][dL][dD][dL][dL][dW][dA]-OH; C-terminus assumed), which tissue uptake at 48 h ([1]; in vivo, read-out: Tibia uptake) is on record?
Answer: 1.1 ± 0.5 %ID/g

Question: Which tissue uptake at 48 h ([1]; in vivo, read-out: Brain uptake) does the source give for `CC[C@@H](C)[C@@H](NC(=O)[C@H]1CCCN1C(=O)[C@@H](CC(N)=O)NC(=O)[C@@H](CCC(N)=O)NC(=O)[C@@H](CCC(=O)O)NC(=O)[C@@H](CCCCNC(=S)Nc1ccc(NC(=S)NCCCCCN(O)C(=O)CCC(=O)NCCCCCN(O)C(=O)CCC(=O)NCCCCCN(O)C(C)=O)cc1)NC(=O)[C@@H](C)NC(C)=O)C(=O)N[C@H](Cc1ccc(O)cc1)C(=O)N[C@H](Cc1c[nH]c2ccccc12)C(=O)N[C@H](C)C(=O)N[C@H](CCCNC(=N)N)C(=O)N[C@H](Cc1ccc(O)cc1)C(=O)N[C@H](C)C(=O)N[C@H](CC(=O)O)C(=O)N[C@H](Cc1c[nH]c2ccccc12)C(=O)N[C@H](CC(C)C)C(=O)N[C@H](Cc1ccccc1)C(=O)N[C@@H](C(=O)N[C@@H](C(=O)N1CCC[C@@H]1C(=O)N[C@H](CC(C)C)C(=O)N[C@H](CC(C)C)C(=O)N[C@H](CC(C)C)C(=O)N[C@H](CC(C)C)C(=O)N[C@H](CC(=O)O)C(=O)N[C@H](CC(C)C)C(=O)N[C@H](C)C(=O)N[C@H](CC(C)C)C(=O)N[C@H](CC(C)C)C(=O)N[C@@H](C(=O)N[C@H](CC(=O)O)C(=O)N[C@H](C)C(=O)N[C@H](CC(=O)O)C(=O)N[C@H](CCC(=O)O)C(=O)NCC(=O)N[C@@H](C(=O)NCC(=O)O)[C@H](C)O)C(C)C)[C@H](C)O)[C@H](C)O` [DFO-Lys-WT] here?
Answer: 0.03 ± 0.03 %ID/g

Question: What about the tissue uptake at 48 h ([1]; in vivo, read-out: Kidneys uptake) of the same compound?
Answer: 14.2 ± 1.2 %ID/g

Question: What about the tissue uptake at 48 h ([1]; in vivo, read-out: Liver uptake) of the same compound?
Answer: 14.8 ± 4.7 %ID/g

Question: What about the tissue uptake at 48 h ([1]; in vivo, read-out: Lungs uptake) of the same compound?
Answer: 11.5 ± 0.4 %ID/g

Question: What about the tissue uptake at 48 h ([1]; in vivo, read-out: Muscle uptake) of the same compound?
Answer: 0.3 ± 0.08 %ID/g

Question: And the tissue uptake at 48 h ([1]; in vivo, read-out: Pancreas uptake)?
Answer: 0.9 ± 0.4 %ID/g

Question: And the tissue uptake at 48 h ([1]; in vivo, read-out: Skin uptake)?
Answer: 1.5 ± 0.2 %ID/g

Question: And the tissue uptake at 48 h ([1]; in vivo, read-out: Spleen uptake)?
Answer: 25.8 ± 5.5 %ID/g

Question: What about the tissue uptake at 48 h ([1]; in vivo, read-out: Tumor uptake) of the same compound?
Answer: 1.6 ± 0.1 %ID/g

Question: What about the tissue to tissue ratio at 48 h ([1]; tumor / muscle, RM-1 model, 48-hour timepoint, read-out: tumor-to-muscle uptake-ratio) of the same compound?
Answer: 5.5 ± 1.5

Question: With `CC(=O)Nc1nnc(S(N)(=O)=O)s1` [acetazolamide] as the compound, how does the “effect on kidney uptake” value [2] read?
Answer: not significant; also recorded: none of these drugs led to a significant reduction of kidney uptake

Question: With `N=C(N)NC(=O)c1nc(Cl)c(N)nc1N` [amiloride] as the compound, how does the “effect on kidney uptake” value [2] read?
Answer: not significant; also recorded: none of these drugs led to a significant reduction of kidney uptake
